Where a chain is given by its changes, count along the chain named.

Data set [1] addresses T1, mouse Aurora-B (Mus musculus, UniProt O70126, L215S/L233S/M258K/P302T/P322T/V291S/W318S).
T1 construct: made in house; host or cells: E. coli BL21(DE3) Star
Description: Aurora-B enzyme activity assay (HTRF). The data set is classed as biochemical. To be noted: 20 nM construct against 300 nM commercially available Aurora-B. As to the method: Aurora-B enzyme preparations were tested for kinase activity in the presence and absence of compounds using a homogeneous time resolved fluorescence (HTRF) assay. In brief, the assay was performed by adding enzyme under appropriate reaction conditions to a tagged substrate. After the kinase reaction proceeds, quenching reagent is added, along with a first molecule consisting of a fluorescence donor conjugated to an antibody recognizing the phosphorylated substrate, and a second molecule that recognizes the tag and that is conjugated to a fluorescence acceptor. The extent of the kinase reaction is measured by time-resolved fluorescence transfer from the fluorescence donor to the fluorescence acceptor in a detection buffer, which occurs when the donor and acceptor are in proximity to one another on the phosphorylated substrate.
The assay was carried out as follows. […]
A 5 μL aliquot of the quenched reaction was transferred to a separate plate containing 5 μL detection buffer (final concentrations: 125 ng/mL europium cryptate-conjugated α-phospho H3 antibody, 8 nM streptavidin-tagged XL665, 25 mM HEPES buffer (pH 7.0), 0.25 M KF, and 0.05% BSA). The detection solution was allowed to incubate at room temperature for 45 min, after which the detection reactions were read on an Analyst AD (LJL Biosystems). […] Delta F is a value calculated from the ratio between the 665 nm and 620 nm emissions. […]
Background: In TR-FRET formats the signal depends on donor and acceptor labels being close together.

A short description of data set [2]: Electrospray mass spectrometry of purified protein for proteolysis between residues 291 and 292. Particulars: expressed in E. coli, GST-tagged protein. The class given is physicochemical. The text has this: mAurB 7X was expressed in E. coli, purified as described below, and analyzed by electrospray mass spectrometry to verify the integrity of the purified protein. […] A construct missing the Val291→Ser and Met258→Lys mutations (referred to as mAurB 5X) was purified, and analyzed by mass spec to determine the extent of proteolysis between Val291 and Lys292. Even in this wild type configuration, proteolysis still affected approximately 25% of total GST-tagged protein. Two additional conservative mutations were introduced to eliminate the major site of proteolysis: Val291→Leu and Lys292→Arg referred to as mAurB 8X VK→LR (5′ primer: SEQ ID NO:53; 3′ primer: SEQ ID NO:54) and Val291→Leu and Lys292→Gln referred to as mAurB 8X VK→LQ (5′ primer: SEQ ID NO:55; 3′ primer: SEQ ID NO:56). The protein sequences of the mAurB 8X VK→LR and mAurB 8X VK→LQ are provided in SEQ ID NO:57 and SEQ ID NO:58, respectively.

In data set [3] the test system is mouse Aurora-A. The data set can be described thus: Aurora-A activity assay (HTRF, enzyme and ATP titrations, histone H3 peptide substrate). Particulars: for Km / Vmax/[enzyme]: ATP titration; for Km: 120 nM biotinylated histone H3 peptide, 25° C., fit in GraphPad Prism; for Vmax/[enzyme]: ΔF/hr per nM enzyme. The class given is biochemical. As for the experimental part: (§1) Protein samples were diluted to 1 mg/mL and incubated for 2 hrs at 4° C. with 1 mM ATP and 5 mM MgCl2. Excess ATP was removed by extensive dialysis against 50 mM Tris-HCl pH 7.5, 200 mM NaCl, and 3 mM DTT.
(§2) Aurora A was titrated twofold in an assay buffer composed of 10 mM Tris-HCl pH 7.2, 10 mM MgCl2, 0.1% BSA, 0.01% Triton X-100 and 1 mM DTT, and containing 120 nM of biotinylated histone H3 substrate peptide (Upstate Biotechnology). The kinase reactions were initiated by adding 10 μL ATP to a final volume of 60 μL and the final ATP concentration of 20 μM. The reactions were incubated at 25° C. for 60 min and terminated by adding EDTA to a final concentration of 200 mM.
(§3) To determine the Km for ATP, ATP was titrated twofold in the assay buffer. The kinase reaction was initiated by adding 50 μL Aurora A (16 nM of insect cell-produced mouse enzyme with residues 98-395, 8 nM of the bacterially produced enzyme with residues 98-395, and 30 nM of the E. coli-expressed crystallography construct with residues 116-381) and histone H3 to a final volume of 60 μL and a final concentration of 120 nM.
(§4) To detect the assay product, the kinase reaction solution was combined with the detection buffer (the KF buffer) supplemented with 0.4 ng/μL phospho-histone H3 europium cryptate-conjugated antibody and 16 nM streptavidin-XL665 (both from Cisbio) in a 1:1 ratio in a 384-well plate. The mixture was incubated for 45 minutes at 25° C. and the plate was then scanned on the Analyst AD system. The fluorescence value F is defined as the ratio of fluorescent emissions at 620 and 665 nm. ΔF was generated by subtracting the average F value for negative control for enzyme activity from the F value in each reaction well. ΔF was plotted against enzyme concentration (for enzyme titrations) or against ATP concentration (for ATP titrations) with GraphPad Prism. The Km values and confidence intervals were determined by fitting the ATP titration curve in GraphPad Prism to the following equation: y=(Vmax*x)/(Km+x), where y is ΔF/hr and x is an ATP concentration.

The target in data set [4] is T2, mouse Aurora-A (Mus musculus, UniProt P97477, K218R/M280L/N164G).
T2 construct: mouse Aurora-A residues 98-395; GST (N, cleaved yes); made in house; host or cells: E. coli BL21(DE3) Star, co-expressed with lambda phosphatase; a second 98-395 preparation came from insect cells
T2 sequence (P97477 with tags, fused parts or gaps N164G/K218R/M280L): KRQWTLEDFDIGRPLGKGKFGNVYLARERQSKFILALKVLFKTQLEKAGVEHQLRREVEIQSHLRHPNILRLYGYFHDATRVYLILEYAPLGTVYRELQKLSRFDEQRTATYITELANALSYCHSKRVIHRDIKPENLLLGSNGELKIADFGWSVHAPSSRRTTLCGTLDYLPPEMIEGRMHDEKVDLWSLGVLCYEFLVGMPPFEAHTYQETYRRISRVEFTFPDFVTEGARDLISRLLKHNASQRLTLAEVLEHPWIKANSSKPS
The description is as above. The class given is biochemical. To be noted: compared with the longer construct, FIG. 4. As for the experimental part:
as §1, §2, §3, §4

B1: mAurB 7X: truncated mouse Aurora-B with 7 hydrophobic surface residues mutated, GST-tagged (protein, listed as Mus musculus)
chain: KRQFTIDNFEIGRPLGKGKFGNVYLAREKKSRFIVALKILFKSQIEKEGVEHQLRREIEIQAHLKHPNILQLYNYFYDQQRIYLILEYAPRGELYKELQKSRTFDEQRTATIMEELSDALTYCHKKKVIHRDIKPENLLLGSQGELKIADFGWSVHAPSSRRKTMCGTLDYLPPEMIEGRMHNEKVDLWCIGVLCYELMVGNPPFESPSHSETYRRISKVDLKFPSSVTSGAQDLISKLLKHNPSQRLTLAEVAAHPWVRANSRRPS
modifications: GST tag
notes: truncated mouse Aurora-B with 7 hydrophobic surface residues mutated, GST-tagged
With B1, the “activity compared with commercially available Aurora-B” value in data set [1] is “compares favorably”. In data set [2], the “extent of proteolysis between residue 291 and Lys292” value is given as “Approximately 50%”.

B2: E. coli-produced 116-381: E. coli-expressed mouse Aurora-A crystallography construct, residues 116-381 (human residues 125-391) (protein)
chain: T2 sequence (P97477 with tags, fused parts or gaps N164G/K218R/M280L)
modifications: Mutated Constructs
In general, Km refers to the substrate concentration at which the rate is half of its maximum. As for B2, in data set [3], the Michaelis constant (Km) turned out to be 65.3 ± 16.1 µM and the “Vmax/[enzyme]” value was found to be 280 h⁻¹ nM⁻¹. The “enzyme activity (in words)” value in data set [3] (H3 peptide as substrate, FIG. 4) is reported as “less active”. Further, the “change in Km for ATP (in words)” value in data set [4] is listed as “substantial increase in the Km for ATP”.

B3: insect cell-expressed 98-395: insect cell-produced mouse Aurora-A enzyme with residues 98-395 (human residues 107-403) (protein, UniProt P97477 98-395, looked up, fragment)
chain: GNDSEKEQASLQKTEDTKKRQWTLEDFDIGRPLGKGKFGNVYLARERQSKFILALKVLFKTQLEKANVEHQLRREVEIQSHLRHPNILRLYGYFHDATRVYLILEYAPLGTVYRELQKLSKFDEQRTATYITELANALSYCHSKRVIHRDIKPENLLLGSNGELKIADFGWSVHAPSSRRTTMCGTLDYLPPEMIEGRMHDEKVDLWSLGVLCYEFLVGMPPFEAHTYQETYRRISRVEFTFPDFVTEGARDLISRLLKHNASQRLTLAEVLEHPWIKANSSKPPTGHTSKEPTSKSS
Regarding B3, in data set [3], the Michaelis-Menten constant (Km) came to 13.6 ± 3.9 µM and the “Vmax/[enzyme]” value was determined as 590 h⁻¹ nM⁻¹.

B4: E. coli-produced 98-395: bacterially produced mouse Aurora-A residues 98-395 with three humanizing and stabilizing mutations (protein)
chain: B3 chain with N67G, K121R, M183L
modifications: Mutated Constructs
notes: bacterially produced mouse Aurora-A residues 98-395 with three humanizing and stabilizing mutations
As for B4, in data set [3], the Km was 10.5 ± 3.5 µM and the “Vmax/[enzyme]” value was determined as 1035 h⁻¹ nM⁻¹.

The values above are taken from US20080020412A1, “Aurora expression constructs” (priority 2006, published 2008).
